Measurements taken from article PMC5518878.

Molecular target: Rhodopsin
Experiment: Tango assay
Conditions: read off a plot

response (ATR, parent: est. 0.39)	response (vehicle, parent: est. 0.08)	Substance
0.76	0.17	human GRK1, full length, fused to the N-terminus of TEV protease (from UniProt Q15835) K46Y
0.71	0.18	human GRK1, full length, fused to the N-terminus of TEV protease (from UniProt Q15835) K46L
0.77	0.2	human GRK1, full length, fused to the N-terminus of TEV protease (from UniProt Q15835) K46W
